{"source": "patent US20020086844A1", "about": "(Harvard, published 2002)", "target": "T1, constitutively expressed nonmitochondrial Hsp70 homolog Hsc70 (human, UniProt P11142 2-646)", "T1 construct": "Endogenous; used as the control in the co-immunoprecipitation", "T1 sequence (P11142 2-646 limits assumed)": "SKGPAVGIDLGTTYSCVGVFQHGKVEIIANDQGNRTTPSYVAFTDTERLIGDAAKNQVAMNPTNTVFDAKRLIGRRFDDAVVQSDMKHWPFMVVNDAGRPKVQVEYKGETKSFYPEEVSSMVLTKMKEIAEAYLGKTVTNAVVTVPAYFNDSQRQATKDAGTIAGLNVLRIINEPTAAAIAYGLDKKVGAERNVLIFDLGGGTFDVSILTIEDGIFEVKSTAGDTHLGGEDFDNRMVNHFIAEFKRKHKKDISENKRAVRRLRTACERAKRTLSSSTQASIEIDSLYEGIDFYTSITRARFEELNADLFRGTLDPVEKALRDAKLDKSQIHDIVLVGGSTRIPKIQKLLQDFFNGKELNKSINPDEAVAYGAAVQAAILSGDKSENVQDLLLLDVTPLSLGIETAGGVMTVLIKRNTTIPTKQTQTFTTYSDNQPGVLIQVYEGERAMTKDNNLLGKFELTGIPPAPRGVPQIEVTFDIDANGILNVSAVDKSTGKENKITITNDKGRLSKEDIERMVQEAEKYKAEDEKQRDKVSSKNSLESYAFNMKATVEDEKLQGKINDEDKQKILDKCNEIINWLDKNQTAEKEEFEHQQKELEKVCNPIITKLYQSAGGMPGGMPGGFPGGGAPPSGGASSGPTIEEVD", "experiment": "co-immunoprecipitation with hTid-1-specific mAbs, immunoblot for Hsc70", "procedure": "FIG. 2C. Endogenous hTid-1L and hTid-1S coimmunoprecipitate with mtHsp70. Immunoprecipitation experiments were performed from U20S cells by using mAbs specific for either hTid-1, mtHsp70, or Hsc70. Immune complexes were analyzed by SDS/PAGE and Western blot with hTid-1-, mtHsp70-, or Hsc70-specific mAbs.\nBecause hTid-1 proteins have extremely well conserved J domains, we suspected that they may be interacting with the mitochondrial Hsp70 homolog, mtHsp70 (GRP75), which is also localized to the mitochondrial matrix. We performed coimmunoprecipitation-immunoblot experiments by using mAbs specific for hTid-1, mtHsp70, or the constitutively expressed nonmitochondrial Hsp70 homolog Hsc70 as a control. hTid-1-specific mAbs immunoprecipitate endogenous hTid-1L and hTid-1S in complex with mtHsp70 from human U2OS cells. (FIG. 2C)."}
{"binder": "hTid-1S (other, Endogenous protein from human cell lysates; also called short form of human Tid1; 40 kDa TID1 splice variant) VSLTGTKHNPFICTASFHTSAPLAKEDYYQILGVPRNASQKEIKKAYYQLAKKYHPDTNKDDPKAKEKFSQLAEAYEVLSDEVKRKQYDAYGSAGFDPGASGSQHSYWKGGPTVDPEELFRKIFGEFSSSSFGDFQTVFDQPQEYFMELTFNQAAKGVNKEFTVNIMDTCERCNGKGNEPGTKVQHCHYCGGSGMETINTGPFVMRSTCRRCGGRGSIIISPCVVCRGAGQAKQKKRVMIPVPAGVEDGQTVRMPVGKREIFITFRVQKSPVFRRDGADIHSDLFISIAQALLGGTARAQGLYETINVTIPPGTQTDQKIRMGGKGIPRINSYGYGDHYIHIKIRVPKRLTSRQQSLILSYAEDETDVEGTVNGVTLTSSGKRSTGN", "values": [{"measurement": "binding result", "value": "no binding"}]}
{"binder": "hTid-1L (other, Endogenous protein from human cell lysates; also called long form of human Tid1; 43 kDa TID1 splice variant) VSLTGTKHNPFICTASFHTSAPLAKEDYYQILGVPRNASQKEIKKAYYQLAKKYHPDTNKDDPKAKEKFSQLAEAYEVLSDEVKRKQYDAYGSAGFDPGASGSQHSYWKGGPTVDPEELFRKIFGEFSSSSFGDFQTVFDQPQEYFMELTFNQAAKGVNKEFTVNIMDTCERCNGKGNEPGTKVQHCHYCGGSGMETINTGPFVMRSTCRRCGGRGSIIISPCVVCRGAGQAKQKKRVMIPVPAGVEDGQTVRMPVGKREIFITFRVQKSPVFRRDGADIHSDLFISIAQALLGGTARAQGLYETINVTIPPGTQTDQKIRMGGKGIPRINSYGYGDHYIHIKIRVPKRLTSRQQSLILSYAEDETDVEGTVNGVTLTSSGGSTMDSSAGSKARREAGEDEEGFLSKLKKMFTS", "values": [{"measurement": "binding result", "value": "no binding"}]}
